# Source: the supplement of paper PMC9170038
# Tested on: MS2 coat protein
# Assay: apparent KD of MS2 coat protein; higher = weaker reporter binding
# Conditions: Eterna round: R107
# Method: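 RNA-MaP round R107: designed RNA switches with theophylline, tryptophan, arginine or FMN aptamers are transcribed on-chip within common flanks. They are titrated with SNAP-549-labelled MS2 coat protein in RNA-MaP buffer (100 mM Tris pH 7.5, 80 mM KCl, 4 mM MgCl2), without ligand or with the indicated ligand. Median apparent KD per design.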
# [1] = input ligand: theophylline 20 uM
# [2] = input ligand: theophylline 2 mM
# [3] = input ligand: tryptophan 2.4 mM
Sequence,apparent KD of MS2 coat protein (input ligand: arginine 13.2 mM),apparent KD of MS2 coat protein (input ligand: none),apparent KD of MS2 coat protein [1],apparent KD of MS2 coat protein [2],apparent KD of MS2 coat protein [3]
AAACAACAUGAGGAUCACCCAUGUACCGAUACCAGCCAAAUAUAAGGCCCUUGGCAGCGGAGUAAAUCCGGAGGACAAUGGGUAA [Same State Theophylline A GF5],8.62 nM,39 nM,39.2 nM,76.9 nM,28.3 nM
UCAUAUUAGUGAGAUGUAAGGUAUCAUGAUACCAGUAGAUAAUUAUACCCUUGGCAGCAUAACAUGAGGAUCACCCAUGUACAUG [Ab],23.1 nM,–,21.3 nM,–,19.8 nM
GUAAAGUAAAGAAGGAGCGUCGAAAAUGGGUAAACAUGAGGAUCACCCAUGUAAAGGGAACGACAGGUAGGUCGCUUUAUUUUAC [AstromonsSSArgB#17],86.7 nM,199 nM,223 nM,284 nM,189 nM
GAAGGAGAGUGAUCCACUCCUUCUCUGGAAGGAGCGAGCGAAAGCUCAGGUAGGUCGCCAGAAACAUGAGGAUCACCCAUGUAAU [(A)''-(M)'-(A)'-(Arg1)-(Arg2)-(M1)-(M2)_Design7],61.2 nM,104 nM,92.6 nM,123 nM,82.3 nM
AAUGUAUGGCACAUGAGGAUCACCCAUGUGCGAGGACCGGUACGGCCGCCACUCGGUCCUGGGAUCUUACAACUAUACAUUAAUG [XTryp A #20],10.3 nM,–,17.2 nM,16.4 nM,–
CGUAGUAUCAGACAUGAGGAUCACCCAUGUCGAGGACCGGUACGGCCGCCACUCGGCAGUUUGCGUCCUCAGGUACUCCAGGUAA [Larirexea],14.8 nM,–,27.9 nM,26.1 nM,–
CUGUACAUCUCGGCCGCCACUGCUGACAUGGGAGUCACCCAUGUCCACAUGAGGAUCACCCAUGUCAGGACCGGGAGGUGUGCAG [SSTryp B #25],87.4 nM,–,272 nM,287 nM,–
GGGUGUGAUCCGGAUACCAGCGAACAUGAGGAUCACCCAUGUGACCUGAGAUCGGCUCUACGCCCUUGGCAGCCGCGAUCGCAGG [Same State Theophylline B GF12],–,18.8 nM,105 nM,37.9 nM,13.1 nM
ACAUGAGGAUCACCCAUGUGUGUAAAUCCUCGAGGACCGGUACGGCCGCCACUCGAUUGAGUGUAAGUUGAAUGUAACAUUCAAC [whbob_SS_trypto A_2s9],46 nM,–,134 nM,144 nM,–
AAAAUCCUAUCUGAGGAUCACCCAGGUGAAGGAGCGCCCGAAAGGGCAGGUAGGUCGCACCUGAGGAUCACCCUGGUAAACCUAA [ArgEX 21 #DoubleMS2 #OpenEnded],68.8 nM,76.7 nM,76.3 nM,90.6 nM,65.4 nM
ACUAGGCUCGGAAACGAGCCUAGGACAGAAGGAGCGUGGAUUAACACAGGUAGGUCGCUGACAUGAGGAUCACCCAUGUAUUUAU [SSAA #5],19.9 nM,27.3 nM,31.2 nM,25.6 nM,21.9 nM
AUAACAUGAGGAUCACCCAUGUAAGCAGAUACCAGCUAGGAAACUAGCCCUUGGCAGCUGCAUUCCUCAUGUAGGUAUCUGCUAA [(M1)-(M2)-(T1)-(T2)-(M)'-(T)'_Design4],18.4 nM,–,22.1 nM,–,16.1 nM
UGGUGUAGGGUAAAUAGGAUUAGUACAGAAGGAGCGCGAAUAAACGCAGGUAGGUCGCUGGAAUACAUGAGGAUCACCCAUGUUC [Same State Arginine A GF 25],22.6 nM,22 nM,24.7 nM,26.7 nM,26 nM
AAGUAAACAUGAGCAAAGCUCAUGUGCGAAGGAGCGGCGGAAACGCCAGGUAGGUCGCGCACAUGAGCAUCAGCCAUGUGUGUCA [Omei Arginine B SS A v1],11.2 nM,37.9 nM,89.8 nM,58.9 nM,52.9 nM
UGUAUGUGAUCUGAUACCAGUCCAACUGGUAAAACACGAGGAUCACCCGUGUAAAAUUGGGACCCUUGGCAGCAGAUCGCAUACU,70 nM,87.5 nM,51.9 nM,12.6 nM,87.9 nM
CUGUACAUCUCGGCCGCCACUGCAACAUGUACACAUGGACAUGUACAUGAGGAUCACCCAUGUGGCAGGACCGGGAGGUGUGCAG [SSTryp B #28],99.8 nM,–,211 nM,309 nM,–
AAAAUCCUACCUGAGGAUCACCCUGGUGAAGGAGCGCCCGAAAGGGCAGGUAGGUCGCACCUGAGGAUCACCCUGGUACCUAAAA [ArgAX 29 #DoubleMs2 #OpenEnded #AlternativeMS2],82.6 nM,70.6 nM,57.4 nM,48.3 nM,61.8 nM
UCGAAUGCGGCGGCCGCCACUCGCGGAUAACGAUAGCUUAACAUGAGGAUCACCCAUGUGUCAUGGAGGACCGGGCCCAUACCGU [azamullin],19.7 nM,–,36.1 nM,26.6 nM,–
AAACGCCACGGAAGGAGCGACAUGAGGAUCACCCAUGUAGUUUUGGCGGAUGCACCCUCCUGUCAGGUAGGUCGCCGUGCGAUAA [XArg-B26],32.6 nM,35.8 nM,71.8 nM,68.5 nM,33.4 nM

Sequence,apparent KD of MS2 coat protein (input ligand: arginine 13.2 mM),apparent KD of MS2 coat protein (input ligand: none),apparent KD of MS2 coat protein [1],apparent KD of MS2 coat protein [2],apparent KD of MS2 coat protein [3]
GGUUGGUGUAGAGAUAUAUUGAUUACUGAAGGAGCGGGAACAAACCCAGGUAGGUCGCAGAGAUCCACAUGAGGAUCACCCAUGU [!0.N],35.2 nM,31.6 nM,58.3 nM,39.3 nM,41.5 nM
UGUAUGGACUGAAGGAGCGCCUCAAAAUAGCAUGAGGAACACCCAUGCAAGGCGAAAGCCGGGCAGGUAGGUCGCAGUCCAUACU [ArgBX 3],21 nM,20.3 nM,32.2 nM,27.2 nM,22.6 nM
UGGAUAAGGGUAAAUAGGAUAAGUACAGAAGGAGCGCGAAUAAACGCAGGUAGGUCGCUGGACAUGAGGAUCACCCAUGUAAAUG [Same State Arginine A GF 22],45.9 nM,48.8 nM,77.1 nM,57.6 nM,50 nM
CGGUGUAGGGUUAAUAGGCUGAGUACAGAAGGAGCGCGAAUAAACGCAGGUAGGUCGCUGGCGAACAUGAGGAUCACCCAUGUAU [Same State Arginine A GF 30],29.5 nM,18.4 nM,24 nM,32 nM,15.9 nM
GGAUAGAUAGGAGAUACCAGAUACAUAAACAUGAGGAUCACCCAUGUGUCUGCACUAAGUAUCCCUUGGCAGCUCGGAGAUCUGA [#17 Same State - Theophylline B],17.4 nM,–,21.7 nM,–,18.5 nM
AUAAUAAAGACGGCCGCCACUAUAAACAUGAGGAACAUGAGGAUCACCCAUGUAUGAGGAUCACCUAGGACCGGGUCAAAUAUUA [AstrosExyTryB#3],36 nM,49.4 nM,70.1 nM,45.9 nM,44.7 nM
UGGUACAUGGCGGCCGCCACUUCACGUAAAAUAAAAGCGUGAGGAUCACCCAUGCAAUAAGUUGGGAGGACCGGGUCAUGUACCU,311 nM,287 nM,633 nM,387 nM,244 nM
UGUACCAUGUCGGCCGCCACUCAUGAUAAAUAUGAGGAUCACCCAUAUAGCGUCAAAGACGCUAUGAGGACCGGGACAUGGUACU [TryBS Zipper 2],40.8 nM,41.3 nM,50.5 nM,50.4 nM,14 nM
UCGUUUGAGUCGGCCGCCACUGGUCUCAUGGUCAACAUGAGGAUCACCCAUGUAUCUUAGUUAAACAGGACCGGGACUCGAUCGA [#17 Exclusion Tryptophan B],62.5 nM,50.5 nM,67.7 nM,34.3 nM,20.6 nM
AGACAUGAGGAUCACCCAUGUAGUAUGGAUACCAGAUGUAGAUUAGUCCCUUGGCAGCUGUGGUGAAGUGAUGCAUUGCUCCUAG [Exclusion - Theophylline A (Freestyle 1)],19.5 nM,–,36.4 nM,–,23.2 nM
AAGACAUGAGGAUCACCCAUGUGGAGGGAUACCAGCCUGUGUGUGGGCCCUUGGCAGCUUAAAUUUAAUUUAAUUAAAUAAAUUU [Same State - Theophylline A],27.6 nM,–,41.6 nM,–,34.9 nM
UGACAUUGCUCAGAUACCAGACAUGAGGAUCACCCAUGUACCGAGGUACCCGAAAGGAAUGUCCCUUGGCAGCUGAGCAAUGUCU [TheoBX 4 #MS2Left #Theo2 #StaticStem],12.9 nM,–,15.5 nM,–,11 nM
GUGUUAUGCUCGGCCGCCACUCUGACAUGAGGAUCACCCAUGUUGUACAUGAGGAUCACCCAUGUGAGGACCGGGAGAAACACGA [Exclusion Tryptophan B GF9],191 nM,193 nM,191 nM,209 nM,274 nM
AUAACAUGAGGAUCACCCAUGUAAGCAGAUACCAGCUAGGAAACUAGCCCUUGGCAGCUGCAAGGUGAUCCUAAUGCAGCUGCAA [(M1)-(M2)-(T1)-(T2)-(M)'-(T)'_Design3],61.9 nM,–,241 nM,–,158 nM
CCCAGUUAGAUCAAAGGAAUUAUACUCGAAGGAGCGUCAUAGUAGGCAGGUAGGUCGCGAGACAUGAGGAUCACCCAUGUAGAGA [azqmullin],30.3 nM,37.9 nM,51.2 nM,41 nM,37.8 nM
UAUCCACAUGAGGAUCACCCAUGUAGGGAAGGAGCGGUGGUUUCACCAGGUAGGUCGCCUUACUGAGGAGAACCGGUGGAAUCGU [Exclusion - Arginine A (Freestyle 29)],23.8 nM,42.1 nM,61.7 nM,105 nM,42.6 nM
ACGUAAUGCAGAAGGAGCGUCAUUUUAAAACAUGAGGAUCACCCAUGUAAUAUUUUUGUGUGACAGGUAGGUCGCUGAAGUACGA [JR_SSArginiB_Sub007],13.9 nM,13.4 nM,17.7 nM,14.4 nM,11.8 nM
GAUCCGUACCAGACCUUCAAUGGACUCAGUCGAGGACCGGUACGGCCGCCACUCGGAGAAGAACAUGAGGAUCACCCAUGUGAUG [theeternabot_exclusion_MS2_Trp_A_36],23.9 nM,–,47 nM,34.9 nM,–
AGCCCUGUGCUAGAUACCAGCUACAUGAGGAUCACCCAUGUGCGUCAAGACUGACUGUGUAGCCCUUGGCAGCUACUCGCAUGUA [Exclusion - Theophylline B (Freestyle 4)],11.9 nM,–,19 nM,–,12.5 nM
